Laboratory results: IntAct's records for PubMed 25239945

B1: Signal peptide peptidase (Homo sapiens), Q8TCT9 (parent)
chain: MDSALSDPHNGSAEAGGPTNSTTRPPSTPEGIALAYGSLLLMALLPIFFGALRSVRCARGKNASDMPETITSRDAARFPIIASCTLLGLYLFFKIFSQEYINLLLSMYFFVLGILALSHTISPFMNKFFPASFPNRQYQLLFTQGSGENKEEIINYEFDTKDLVCLGLSSIVGVWYLLRKHWIANNLFGLAFSLNGVELLHLNNVSTGCILLGGLFIYDVFWVFGTNVMVTVAKSFEAPIKLVFPQDLLEKGLEANNFAMLGLGDVVIPGIFIALLLRFDISLKKNTHTYFYTSFAAYIFGLGLTIFIMHIFKHAQPALLYLVPACIGFPVLVALAKGEVTEMFSYEESNPKDPAAVTESKEGTEASASKGLEKKEK
partner: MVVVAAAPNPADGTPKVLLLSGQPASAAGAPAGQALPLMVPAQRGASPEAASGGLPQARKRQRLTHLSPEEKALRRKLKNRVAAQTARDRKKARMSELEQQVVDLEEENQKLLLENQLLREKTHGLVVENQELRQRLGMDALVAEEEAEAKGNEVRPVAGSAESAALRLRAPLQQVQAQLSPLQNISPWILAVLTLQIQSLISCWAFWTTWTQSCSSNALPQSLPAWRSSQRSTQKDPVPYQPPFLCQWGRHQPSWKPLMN

Variants of: B1
Details: with XBP1, P17861-1

Row | effect of a mutation on the interaction | Variant
1 | increasing interaction | D265A
